The series deals with the molecule itself. As to the kind of experiment: magnetic tweezers force spectroscopy.

B1: HMfA_(K31A E35A) (natural protein)
chain: not shown
Protein B1 yielded a stacking energy of 1.18 kBT.

B2: HMfA homodimer (Methanothermus fervidus histone HMfA) (natural protein)
chain: not shown
In turn, B2 registered a stacking energy of 1.81 kBT.

B3: HMfB homodimer (Methanothermus fervidus histone HMfB) (natural protein)
chain: not shown
For the protein B3, the stacking energy was found to be 3.44 kBT.

B4: HMfB_(D14A K30A E34A) (natural protein)
chain: not shown
Take B4: the stacking energy worked out at 1.07 kBT.

The record behind these values is paper PMC8096283 (Nucleic Acids Research, 2020).
